# Molecular target: Brucella abortus peptidoglycan hydrolase inhibitor A (PhiA), mature periplasmic form (Brucella abortus)
# Assay: SEC-MALS
substance,measurement,value
"Brucella abortus peptidoglycan hydrolase inhibitor A (PhiA), mature periplasmic form (natural protein)",stoichiometry N,4
